Results as given in the supplement of paper PMC10567573.

B1: WEE1 (parent)
chain: FISRTSIPNAASEEGDEDDWASNK

Variants of: B1
Assay: protein stability index of a GFP-peptide fusion (GPS, HEK-293T) (PSI 1-6); higher = more stable
Conditions: c terminus: a fixed tail appended
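Note: lentivirally expressed fusions sorted by FACS into six bins by GFP to DsRed ratio, PSI derived from sequencing read proportions per bin multiplied by bin number.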

Variant | protein stability index
FISRTSIPQAASEEGDEDDWASNK [N9Q] | 4.28
FISRTSIPDAASEEGDEDDWASNK [N9D] | 4.34
FISRTSIPIAASEEGDEDDWASNK [N9I] | 3.77
FISRTSIPTAASEEGDEDDWASNK [N9T] | 4.21
FISRTSIPSAASEEGDEDDWASNK [N9S] | 3.84
FISRTSIPWAASEEGDEDDWASNK [N9W] | 2.46
FISRTSIPKAASEEGDEDDWASNK [N9K] | 4.13
FISRTSIPRAASEEGDEDDWASNK [N9R] | 3.35
FISRTSIPLAASEEGDEDDWASNK [N9L] | 3.79
FISRTSIPHAASEEGDEDDWASNK [N9H] | 3.93
FISRTSIPEAASEEGDEDDWASNK [N9E] | 4.64
FISRTSIPFAASEEGDEDDWASNK [N9F] | 2.87
FISRTSIPAAASEEGDEDDWASNK [N9A] | 3.66
FISRTSIPYAASEEGDEDDWASNK [N9Y] | 2.35
FISRTSIPCAASEEGDEDDWASNK [N9C] | 3.44
FISRTSIPGAASEEGDEDDWASNK [N9G] | 4.38
FISRTSIPVAASEEGDEDDWASNK [N9V] | 3.93
FISRTSIPMAASEEGDEDDWASNK [N9M] | 3.25
FISRTSIPPAASEEGDEDDWASNK [N9P] | 3.91
FISRTSIPNGASEEGDEDDWASNK [A10G] | 4.13
FISRTSIPNNASEEGDEDDWASNK [A10N] | 3.86
FISRTSIPNWASEEGDEDDWASNK [A10W] | 2.15
FISRTSIPNEASEEGDEDDWASNK [A10E] | 4.35
FISRTSIPNHASEEGDEDDWASNK [A10H] | 4.06

Variant | protein stability index
FISRTSIPNMASEEGDEDDWASNK [A10M] | 3.54
FISRTSIPNTASEEGDEDDWASNK [A10T] | 3.89
FISRTSIPNFASEEGDEDDWASNK [A10F] | 3.24
FISRTSIPNKASEEGDEDDWASNK [A10K] | 3.65
FISRTSIPNRASEEGDEDDWASNK [A10R] | 3.97
FISRTSIPNVASEEGDEDDWASNK [A10V] | 3.57
FISRTSIPNLASEEGDEDDWASNK [A10L] | 3.93
FISRTSIPNSASEEGDEDDWASNK [A10S] | 4.34
FISRTSIPNYASEEGDEDDWASNK [A10Y] | 3.17
FISRTSIPNDASEEGDEDDWASNK [A10D] | 3.15
FISRTSIPNQASEEGDEDDWASNK [A10Q] | 4.16
FISRTSIPNPASEEGDEDDWASNK [A10P] | 4.21
FISRTSIPNCASEEGDEDDWASNK [A10C] | 3.67
FISRTSIPNIASEEGDEDDWASNK [A10I] | 3.56
FISRTSGPNAASEEGDEDDWASNK [I7G] | 4.84
FISRTSRPNAASEEGDEDDWASNK [I7R] | 3.58
FISRTSPPNAASEEGDEDDWASNK [I7P] | 4.79
FISRTSMPNAASEEGDEDDWASNK [I7M] | 4.41
FISRTSSPNAASEEGDEDDWASNK [I7S] | 4.36
FISRTSDPNAASEEGDEDDWASNK [I7D] | 4.84
FISRTSHPNAASEEGDEDDWASNK [I7H] | 3.79
FISRTSVPNAASEEGDEDDWASNK [I7V] | 3.78
FISRTSFPNAASEEGDEDDWASNK [I7F] | 2.79
FISRTSWPNAASEEGDEDDWASNK [I7W] | 2.82

Variant | protein stability index
FISRTSQPNAASEEGDEDDWASNK [I7Q] | 4.37
FISRTSKPNAASEEGDEDDWASNK [I7K] | 4.28
FISRTSCPNAASEEGDEDDWASNK [I7C] | 3.83
FISRTSTPNAASEEGDEDDWASNK [I7T] | 4.53
FISRTSEPNAASEEGDEDDWASNK [I7E] | 4.54
FISRTSYPNAASEEGDEDDWASNK [I7Y] | 2.72
FISRTSNPNAASEEGDEDDWASNK [I7N] | 4.35
FISRTSLPNAASEEGDEDDWASNK [I7L] | 4.11
FISRTSIPNAASEERDEDDWASNK [G15R] | 3.26
FISRTSIPNAASEEDDEDDWASNK [G15D] | 4.12
FISRTSIPNAASEENDEDDWASNK [G15N] | 3.78
FISRTSIPNAASEETDEDDWASNK [G15T] | 4.17
FISRTSIPNAASEEADEDDWASNK [G15A] | 4.17
FISRTSIPNAASEEVDEDDWASNK [G15V] | 4.46
FISRTSIPNAASEEMDEDDWASNK [G15M] | 3.72
FISRTSIPNAASEEPDEDDWASNK [G15P] | 3.79
FISRTSIPNAASEELDEDDWASNK [G15L] | 3.74
FISRTSIPNAASEEKDEDDWASNK [G15K] | 4.18
FISRTSIPNAASEEYDEDDWASNK [G15Y] | 4.13
FISRTSIPNAASEESDEDDWASNK [G15S] | 4.42
FISRTSIPNAASEEEDEDDWASNK [G15E] | 4.62
FISRTSIPNAASEEHDEDDWASNK [G15H] | 3.91
FISRTSIPNAASEEWDEDDWASNK [G15W] | 3.27
FISRTSIPNAASEECDEDDWASNK [G15C] | 4.51

Variant | protein stability index
FISRTSIPNAASEEQDEDDWASNK [G15Q] | 3.78
FISRTSIPNAASEEFDEDDWASNK [G15F] | 3.83
FISRTSIPNAASEEIDEDDWASNK [G15I] | 4.29
FISRTSIPNAASEVGDEDDWASNK [E14V] | 3.35
FISRTSIPNAASEKGDEDDWASNK [E14K] | 4.03
FISRTSIPNAASELGDEDDWASNK [E14L] | 3.56
FISRTSIPNAASESGDEDDWASNK [E14S] | 3.66
FISRTSIPNAASEFGDEDDWASNK [E14F] | 3.53
FISRTSIPNAASEIGDEDDWASNK [E14I] | 3.64
FISRTSIPNAASECGDEDDWASNK [E14C] | 4.11
FISRTSIPNAASEDGDEDDWASNK [E14D] | 3.88
FISRTSIPNAASEHGDEDDWASNK [E14H] | 3.75
FISRTSIPNAASEYGDEDDWASNK [E14Y] | 4.02
FISRTSIPNAASETGDEDDWASNK [E14T] | 3.99
FISRTSIPNAASERGDEDDWASNK [E14R] | 3.39
FISRTSIPNAASEGGDEDDWASNK [E14G] | 3.33
FISRTSIPNAASENGDEDDWASNK [E14N] | 3.78
FISRTSIPNAASEMGDEDDWASNK [E14M] | 3.79
FISRTSIPNAASEQGDEDDWASNK [E14Q] | 3.91
FISRTSIPNAASEPGDEDDWASNK [E14P] | 3.98
FISRTSIPNAASEWGDEDDWASNK [E14W] | 3.02
FISRTSIPNAASEAGDEDDWASNK [E14A] | 4.43
